In patent US20250297032A1 (CONCEPT TO MEDICINE BIOTECH, published 2025):
Blank lines part the entries; values can stand above or below the binder they belong to.

Assays:
[1] = biological target: T1, human FAPα-His tag (Sino biological) (human, UniProt Q12884 26-760); experiment: competitive ELISA on coated human FAPα; competitor (detected): FAP-J40-Bio
T1 construct: Bought protein; also called human FAPα-His protein; not shown: His tag
T1 sequence (looked up): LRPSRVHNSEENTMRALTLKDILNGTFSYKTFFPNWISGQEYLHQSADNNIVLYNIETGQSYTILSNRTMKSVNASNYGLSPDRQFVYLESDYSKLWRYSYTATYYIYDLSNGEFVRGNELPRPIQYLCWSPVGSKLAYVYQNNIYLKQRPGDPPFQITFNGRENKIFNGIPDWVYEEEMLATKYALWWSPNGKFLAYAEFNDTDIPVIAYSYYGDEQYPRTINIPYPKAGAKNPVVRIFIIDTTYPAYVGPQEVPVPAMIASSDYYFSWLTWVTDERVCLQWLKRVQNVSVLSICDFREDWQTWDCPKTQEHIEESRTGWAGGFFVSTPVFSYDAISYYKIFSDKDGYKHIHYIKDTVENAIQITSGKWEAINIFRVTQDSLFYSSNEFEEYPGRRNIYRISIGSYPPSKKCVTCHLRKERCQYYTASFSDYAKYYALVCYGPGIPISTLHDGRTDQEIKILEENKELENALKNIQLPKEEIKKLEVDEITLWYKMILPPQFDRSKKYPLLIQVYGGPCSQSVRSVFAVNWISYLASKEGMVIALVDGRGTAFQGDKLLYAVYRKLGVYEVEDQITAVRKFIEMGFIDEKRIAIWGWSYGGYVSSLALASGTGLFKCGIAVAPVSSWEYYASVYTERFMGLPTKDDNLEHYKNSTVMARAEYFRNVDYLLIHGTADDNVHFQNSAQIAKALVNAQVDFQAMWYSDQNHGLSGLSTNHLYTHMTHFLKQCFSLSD
Protocol: (§1) Briefly, microtiter plates were coated with human FAPα proteins at 0.5 μg/ml in PBS, 100 μl/well at 4° C. overnight, then blocked with 150 μl/well of 1% BSA. Serial dilutions of chimeric antibodies as well as biotin-conjugated reference mAb were added to each well and incubated for 1 hour at RT. The plates were washed with PBS/Tween and then incubate with streptavidin-HRP for 15 mins at RT. After washing, the plates were developed with TMB substrate and analyzed by spectrophotometer at OD 450 nm. According to the competition ability to reference mAbs (Benchmark, or “BMK”), all tested FAPα mAbs binds to the similar epitope as shown in Table 5.

[2] = biological target: T1, human FAPα-His tag (Sino biological); experiment: competitive ELISA on coated human FAPα; competitor (detected): FAP-G52-Bio
Protocol: as §1

[3] = biological target: T1, human FAPα-His tag (Sino biological); experiment: competitive ELISA on coated human FAPα; competitor (detected): FAP-I30-Bio
Protocol: as §1

[4] = biological target: T2, human FAPα on CHO-K1-hFAPα cells (human, UniProt Q12884 1-760); experiment: flow cytometry on CHO-K1-hFAPα cells (MFI of PE); design: unit not given beside the values
T2 construct: whole, on cells; also called cell-surface FAPα
T2 sequence (looked up): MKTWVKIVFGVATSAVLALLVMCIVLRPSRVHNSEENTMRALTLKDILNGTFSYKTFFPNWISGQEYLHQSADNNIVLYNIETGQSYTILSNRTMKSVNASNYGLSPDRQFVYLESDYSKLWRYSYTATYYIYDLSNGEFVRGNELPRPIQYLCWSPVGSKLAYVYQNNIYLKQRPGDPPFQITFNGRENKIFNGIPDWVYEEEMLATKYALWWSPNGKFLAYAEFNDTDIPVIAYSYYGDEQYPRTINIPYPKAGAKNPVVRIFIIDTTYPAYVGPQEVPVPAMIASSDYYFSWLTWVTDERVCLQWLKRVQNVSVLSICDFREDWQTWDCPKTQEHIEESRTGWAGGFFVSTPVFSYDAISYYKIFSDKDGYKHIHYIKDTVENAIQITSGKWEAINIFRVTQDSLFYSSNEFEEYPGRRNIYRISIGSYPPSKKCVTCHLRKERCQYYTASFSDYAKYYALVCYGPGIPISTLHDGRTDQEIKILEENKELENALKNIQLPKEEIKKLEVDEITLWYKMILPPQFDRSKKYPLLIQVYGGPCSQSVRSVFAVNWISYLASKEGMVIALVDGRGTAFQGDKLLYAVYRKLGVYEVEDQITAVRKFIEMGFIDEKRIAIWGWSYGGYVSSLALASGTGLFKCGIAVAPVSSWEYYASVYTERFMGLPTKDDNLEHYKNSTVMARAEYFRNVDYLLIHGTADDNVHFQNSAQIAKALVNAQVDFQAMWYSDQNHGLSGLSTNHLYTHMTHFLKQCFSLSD
Protocol: (§2) To evaluate the cell-based binding property to human FAPα, the tested antibodies were analyzed for their binding to CHO-K1-hFAPα by FACS. A total number of 1×10⁵ CHO-K1-hFAPα cells in each well were incubated with 4-fold serial diluted antibodies starting from 3 μg/ml for 30 minutes at 4° C. in FACS buffer. After wash by FACS buffer, PE conjugated-anti-human IgG antibody was added to each well and incubated at 4° C. for 30 minutes. After wash, MFI of PE was evaluated by MACSQuant Analyzer 16.

[5] = biological target: T1, human FAPα-His tag (Sino biological); experiment: competitive ELISA on coated human FAPα; competitor (detected): FAP-I38-Bio
Protocol: as §1

[6] = biological target: T1, human FAPα-His tag (Sino biological); experiment: ELISA, coated human FAPα-His
Protocol: Briefly, microtiter plates were coated with human FAPα-His protein at 0.5 ug/ml in PBS, 100 μl/well at 4° C. overnight, then blocked with 150 μl/well of 1% BSA. Three-fold dilutions of tested antibodies starting from 1 μg/ml were added to each well and incubated for 1 hour at 37° C. The plates were washed with PBS/Tween and then incubated with Anti-Human IgG (H&L) (GOAT) Antibody Peroxidase Conjugated for 30 mins at 37° C. After washing, the plates were developed with TMB substrate and analyzed by spectrophotometer at OD 450 nm. […] FAP-4B9 clone from Roche was served as positive control which labeled as FAPα-BMK.

[7] = biological target: T1, human FAPα-His tag (Sino biological); experiment: competitive ELISA on coated human FAPα; competitor (detected): FAP-G14-Bio
Protocol: (§3) Competitive ELISA was carried out to classify the FAPα mAbs based on the binding epitope to human FAPα.
as §1

[8] = biological target: T1, human FAPα-His tag (Sino biological); experiment: SPR (Biacore T200), mAb captured on Protein A chip, human FAPα-His as analyte
Protocol: The binding of the tested antibodies to recombinant FAPα protein (human FAPα-his tag) was tested with Biacore using a capture method. The mAbs were captured using Protein A chip. A serial dilution of human FAPα-his tag protein was injected over captured antibody for 3 mins at a flow rate of 30 μl/min. The antigen was allowed to dissociate for 800s. All the experiments were carried out on a Biacore T200. Data analysis was carried out using the Biacore T200 evaluation software.

[9] = biological target: T1, human FAPα-His tag (Sino biological); experiment: competitive ELISA on coated human FAPα; competitor (detected): FAP-I37-Bio
Protocol: as §3, §1

[10] = biological target: T1, human FAPα-His tag (Sino biological); experiment: competitive ELISA on coated human FAPα; biotinylated mAb alone, no competing Ab (row '0')
Protocol: as §1

[11] = biological target: T1, human FAPα-His tag (Sino biological); experiment: competitive ELISA on coated human FAPα; competitor (detected): FAPα (BMK)-Bio
Protocol: as §1

[12] = biological target: T2, human FAPα on CHO-K1-hFAPα cells; experiment: flow cytometry on CHO-K1-hFAPα cells
Protocol: as §2

mouse FAPα-His protein = biological target: T3, mouse FAPα-His protein (mouse, UniProt P97321 26-761, limits assumed); experiment: ELISA, plate coated with mouse FAPα-His, anti-human IgG-HRP, OD 450 nm
T3 construct: not shown: His tag
T3 sequence (looked up): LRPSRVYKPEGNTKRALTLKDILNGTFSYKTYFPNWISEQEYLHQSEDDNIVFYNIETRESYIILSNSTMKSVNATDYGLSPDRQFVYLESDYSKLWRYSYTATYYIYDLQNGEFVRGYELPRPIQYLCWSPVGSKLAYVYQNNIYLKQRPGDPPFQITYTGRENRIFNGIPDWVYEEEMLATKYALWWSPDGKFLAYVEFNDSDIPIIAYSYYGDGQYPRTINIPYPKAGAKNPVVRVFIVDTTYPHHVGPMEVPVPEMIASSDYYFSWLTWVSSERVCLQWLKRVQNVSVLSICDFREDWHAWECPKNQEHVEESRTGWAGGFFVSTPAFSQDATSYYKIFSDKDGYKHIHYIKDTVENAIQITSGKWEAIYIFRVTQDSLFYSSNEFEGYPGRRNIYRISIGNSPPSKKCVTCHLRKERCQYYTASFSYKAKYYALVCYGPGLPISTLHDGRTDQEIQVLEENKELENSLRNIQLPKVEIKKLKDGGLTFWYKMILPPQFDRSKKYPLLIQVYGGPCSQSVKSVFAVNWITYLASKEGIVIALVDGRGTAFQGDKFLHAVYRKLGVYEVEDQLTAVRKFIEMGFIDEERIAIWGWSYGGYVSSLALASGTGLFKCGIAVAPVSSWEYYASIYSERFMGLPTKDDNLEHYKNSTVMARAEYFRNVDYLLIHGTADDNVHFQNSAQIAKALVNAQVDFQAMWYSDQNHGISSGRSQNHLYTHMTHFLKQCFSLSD
Protocol: Briefly, microtiter plates were coated with mouse FAPα-His protein at 0.5 ug/ml in PBS, 100 μl/well at 4° C. overnight, then blocked with 150 μl/well of 1% BSA. Three-fold dilutions of tested antibodies starting from 1 μg/ml were added to each well and incubated for 1 hour at 37° C. The plates were washed with PBS/Tween and then incubated with Anti-Human IgG (H&L) (GOAT) Antibody Peroxidase Conjugated for 30 mins at 37° C. After washing, the plates were developed with TMB substrate and analyzed by spectrophotometer at OD 450 nm.

OD 450 nm [1]: 0.226 OD 450 nm
OD 450 nm [2]: 0.176 OD 450 nm
OD 450 nm [3]: 0.22 OD 450 nm
Cmax [4]: 189
OD 450 nm [5]: 0.396 OD 450 nm
EC50 [6]: 4.89 ng/mL
OD 450 nm [7]: 0.149 OD 450 nm
Kd [8]: 1.12 nM
koff [8]: 0.000116 s⁻¹
kon [8]: 103000 M⁻¹ s⁻¹
OD 450 nm [9]: 0.282 OD 450 nm
OD 450 nm [10]: 1.21 OD 450 nm
OD 450 nm [11]: 0.154 OD 450 nm
EC50 [12]: 0.026 ng/mL
B1: I38 (antibody, V domains shown)
VH: EVQLVQSGAEVKEPGVSVKVSCKASGYTFASYGLSWVRLAPGQGLQWMGWISPYTPNPIYAPNFRDKVILTTDRSTNTAYLEVRSLRSDDTGLYYCARNHWVGRPTRAFDLWGQGTMVTVSA
VL: EIVLTQSPGTLSLSPGERATLSCRASQTVSITHLAWYQQKPGQAPRLLTYGASARATGIPDRFSVSGSGTDFTLTITRLEPEDFAVYYCQHYGSSITFGGGTKVEIK
notes: Tested as a mAb; also called FAP-I38

OD 450 nm [1]: 0.298 OD 450 nm
OD 450 nm [2]: 0.283 OD 450 nm
OD 450 nm [3]: 0.302 OD 450 nm
OD 450 nm [5]: 0.466 OD 450 nm
EC50 [6]: 9.48 ng/mL
OD 450 nm [7]: 0.358 OD 450 nm
binding result (mouse FAPα-His protein): no binding (tested: 1000 ng/ml)
Kd [8]: 0.446 nM
koff [8]: 1.81e-05 s⁻¹
kon [8]: 40500 M⁻¹ s⁻¹
OD 450 nm [9]: 0.399 OD 450 nm
OD 450 nm [10]: 1.26 OD 450 nm
OD 450 nm [11]: 0.304 OD 450 nm
B2: G52 (antibody, V domains shown)
VH: EVQLLESGGDLVQPGGSLRLSCAASGFTFSSYAMSWVRQAPGKGLEWVSGISNGGDSIAYADSVKGRFTVFRDNAKNTLYLQMNSLRAEDTAIYYCARGNYYAHDDWGQGTLVTVSA
VL: DIQLTQSPSSVSASVGDRVTITCRASQGVGSWLAWYQQKPGKPPKLLIYAASSLQSGVPSRFSGSGSGTDFTLTISSLQPEDFATYYCQQANSFPLTFGGGTKVEIK
notes: Tested as a mAb; also called FAP-G52; FAP-G52-Bio (biotin-conjugated form)

Cmax [4]: 149
EC50 [6]: 3.94 ng/mL
binding result (mouse FAPα-His protein): no binding (tested: 1000 ng/ml)
Kd [8]: 1.78 nM
koff [8]: 0.000594 s⁻¹
kon [8]: 333000 M⁻¹ s⁻¹
EC50 [12]: 0.029 ng/mL
B3: J59 (antibody, V domains shown)
VH: QVQLLESGGGVVQPGRSLRLSCAASGFTFSSYGMHWVRQAPGKGLEWVAVISYDGSNKYYADSVKGRFTISRDNSKNTLYLQMNSLRADDTAVYYCARESYTGLGSFLHWGQGTLVTVSA
VL: NIQLTQSPSSLSASVGDRVTITCRASQTISNYLNWYQQKPGKAPKLLISAASSLQGGVPSRFSGSGSGTDFTLAISSLQPEDSATYYCQYWGTFGQGTKLEIK
notes: Tested as a mAb
